Measurements as given in publication PMC4798948, “Nucleocapsid assembly in pneumoviruses is regulated by conformational switching of the N protein” (eLife, 2016).
Where “and” joins values, the source holds several entries; their conditions need not be identical. Equal values may be shown once.

What was measured:
[1] = target: the molecule itself; assay: electron cryomicroscopy with 2D classification; purified N-RNA preparation plunge-frozen on holey carbon grids; 2D-class averages with RELION
[2] = target: the molecule itself; assay: crystal structure; N-RNA ring (~4 mg/mL), RNA-bound; 100 mM Tris/Bicine pH 8.5, 90 mM NPS, 37.5% MPD/PEG 1000/PEG 3350 (MORPHEUS); 4.2 Å; ten-fold non-crystallographic symmetry

B1: HMPV nucleoprotein N, assembled RNA-bound state (N-RNA rings) (natural protein)
chain: MSLQGIHLSDLSYKHAILKESQYTIKRDVGTTTAVTPSSLQQEITLLCGEILYAKHADYKYAAEIGIQYISTALGSERVQQILRNSGSEVQVVLTRTYSLGKIKNNKGEDLQMLDIHGVEKSWVEEIDKEARKTMATLLKESSGNIPQNQRPSAPDTPIILLCVGALIFTKLASTIEVGLETTVRRANRVLSDALKRYPRMDIPKIARSFYDLFEQKVYHRSLFIEYGKALGSSSTGSKAESLFVNIFMQAYGAGQTMLRWGVIARSSNNIMLGHVSVQAELKQVTEVYDLVREMGPESGLLHLRQSPKAGLLSLANCPNFASVVLGNASGLGIIGMYRGRVPNTELFSAAESYAKSLKESNKINFSSLGLTDEEKEAAEHFLNVSDDSQNDYE
notes: Nucleoprotein N of human metapneumovirus, strain NL1-00 (A1), full-length N gene, 394 residues; each N subunit contacts seven RNA nucleotides; also called subnucleocapsid ring; decameric N-RNA ring; source: Rosetta2 E. coli, purified (Ni-NTA, Superose 6), with RNA from the expression host
[1]
  stoichiometry N: 9 and 11
[2]
  stoichiometry N: 10
